B1: peptide_(RAB4B) (peptide)
peptide: VVNVGGKTVK
B2: peptide_(GRB10) (peptide)
peptide: DVKVFSEDGTSKVVE
B3: peptide_(BRAF) (peptide)
peptide: IVRVFLPNKQRTVVP
B4: peptide_(GRB14) (peptide)
peptide: VIKVYSEDETSRALD

The results in this text go back to publication PMC11575137 (BMC Biology, 2024).

What is called Kd is a measure of binding affinity in units of concentration.

The target of the assay is biotinylated GTP-loaded KRAS (recombinant human KRAS loaded with GppCp) (human, UniProt P01116 1-189). Description: BLI. For orientation: BLI is a label-free optical method that tracks binding on a fibre tip over time.
biotinylated GTP-loaded KRAS (recombinant human KRAS loaded with GppCp), sequence (P01116 whole entry): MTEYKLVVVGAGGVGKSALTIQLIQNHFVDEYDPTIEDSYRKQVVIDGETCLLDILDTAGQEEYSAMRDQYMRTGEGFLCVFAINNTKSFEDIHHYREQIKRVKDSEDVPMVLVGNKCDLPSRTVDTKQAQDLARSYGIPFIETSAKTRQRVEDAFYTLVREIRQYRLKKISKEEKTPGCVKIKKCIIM
With B1, the Kd is 84 µM.

Consider B2, for which the Kd amounted to 78 µM.

As to B3, the Kd is 150 µM.

With B4, the Kd is 87 µM.
